Paper PMC7869511, “Computer-aided design of PVR mutants with enhanced binding affinity to TIGIT” (Cell Communication and Signaling : CCS, 2021)

B1: Fc-fused protein of human TIGIT [human] / wild type human PVR, full length, on CHO-K1 cells [human] (parent complex)
chain 1: MMTGTIETTGNISAEKGGSIILQCHLSSTTAQVTQVNWEQQDQLLAICNADLGWHISPSFKDRVAPGPGLGLTLQSLTVNDTGEYFCIYHTYPDGTYTGRIFLEVLESSVAEHGARFQIP
chain 2: WPPPGTGDVVVQAPTQVPGFLGDSVTLPCYLQVPNMEVTHVSQLTWARHGESGSMAVFHQTQGPSYSESKRLEFVAARLGAELRNASLRMFGLRVEDEGNYTCLFVTFPQGSRSVDIWLRVLAKPQNTAEVQKVQLTGEPVPMARCVSTGGRPPAQITWHSDLGGMPNTSQVPGFLSGTVTVTSLWILVPSSQVDGKNVTCKVEHESFEKPQLLTVNLTVYYPPEVSISGYDNNWYLGQNEATLTCDARSNPEPTGYNWSTTMGPLPPFAVAQGAQLLIRPVDKPINTTLICNVTNALGARQAELTVQVKEGPPSEHSGISRNAIIFLVLGILVFLILLGIGIYFYWSKCSREVLWHCHLCPSSTEHASASANGHVSYSAVSRENSSSQDPQTEGTR

Variants of: B1
Experiment: flow cytometry on cells; 120 nM hTIGIT-Fc; CHOK1 cells overexpressing hPVR; parent: 1; read off a plot

Compared with chain 2 S112R, chain 2 S112Q is higher in ratio to parent: about 1 for the first, about 1.4 for the second.

Going from chain 2 S67W to chain 2 S52R, the ratio to parent rises from about 0.82 to about 1.1.

Compared with chain 2 S52W, chain 2 G111V is higher in ratio to parent: about 1.2 for the first, about 1.6 for the second.

First: chain 2 G111M
Second: chain 2 G111W
The ratio to parent of the first is higher: about 0.93 for the first, about 0.55 for the second.

Compared with chain 2 T45E, chain 2 S54W is higher in ratio to parent: about 0.1 for the first, about 1.2 for the second.

Variants of: B1
Experiment: flow cytometry on cells; 120 nM hTIGIT-Fc; CHOK1 cells overexpressing hPVR; parent: 3.2e+03; read off a plot

First: chain 2 S112Q
Second: chain 2 G111V
The response of the first is lower: about 4400 MFI for the first, about 4900 MFI for the second.

Variants of: B1
Experiment: as above
Remark: another data set of the same source

Going from chain 2 S67W to chain 2 G111W, the response falls from about 2600 MFI to about 1700 MFI.

In the case of chain 2 T45E, the response is reported as about 100 MFI.
